The assay addresses 6xHis-tagged Mac3-V570R. In words: in vitro aggregation assay (turbidity, OD320 over time). As to conditions: read at t = 60 min; purified 6xHis-tagged proteins; parent: est. 0.81; read off a plot.

For 6xHis-tagged Mac3 V570R, the response worked out at 0.5 OD320.

For the origin of these results see article PMC11842775.
